These results are taken from US20050123920A1.

Bounds are passed on as bounds.

One assay deals with HA-VHL (UniProt P40337). Put plainly: co-immunoprecipitation of cotransfected proteins.
Assay [1] addresses human Jade-1 protein (human). Put plainly: cell-based or functional assay.
Assay [2] has as its target human Jade-1 protein (human). Put plainly: estimate based upon co-localization data (immunofluorescence).
Assay [3] addresses FL-Jade-1 (tagged library clone, transfected) (human). The assay can be described thus: co-immunoprecipitation of cotransfected proteins.

Chain of UniProt P40337 (P40337 whole entry): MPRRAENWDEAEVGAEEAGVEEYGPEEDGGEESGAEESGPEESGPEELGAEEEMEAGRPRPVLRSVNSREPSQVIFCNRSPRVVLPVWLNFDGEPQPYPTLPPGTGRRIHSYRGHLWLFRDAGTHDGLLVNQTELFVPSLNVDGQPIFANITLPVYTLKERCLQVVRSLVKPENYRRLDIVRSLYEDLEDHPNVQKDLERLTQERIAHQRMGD

In the assay with HA-VHL, “FL-Jade-1 (tagged library clone, transfected)” gave a percent of Jade-1 in the cell lysate immunoprecipitable with VHL of 30 to 40%.

With “von Hippel-Lindau (VHL) protein, wild-type human (from UniProt P40337 1-213)”, in assay [1], the endogenous Jade-1 protein half-life in VHL-plus 786-O renal cancer cells (~40 minutes in VHL-minus cells), metabolic labeling was determined as 1 h; the half-life of Jade-1 transiently transfected with VHL (data not shown) is 1.5 h; the increase of Jade-1 protein half-life with cotransfected VHL in 293 cells, pulse-chase stood at 2 fold. The percent of VHL that associates with Jade-1 in assay [2] is under 10%.

In assay [3], HA-VHL (from UniProt P40337 1-213) displayed a percent of VHL in the cell lysate immunoprecipitable with Jade-1 (vice-versa) of 30 to 40%.
